According to patent US20080176225A1, “MEMBRANE BOUND REPORTER GENE SYSTEM” (priority 2007, published 2008):

Key:
[1] = Specific activity and pH profile of purified recombinant β-glucuronidases; format: biochemical; conditions: purified recombinant protein, n=3; for maximal specific activity: at optimal pH
Description: It is contemplated that the disparity between the relative surface expression levels the relative enzymatic activity of human β-glucuronidase, mouse β-glucuronidase, and E. coli β-glucuronidase in EJ cells is probably because of the neutral pH optimum of E. coli β-glucuronidase or a highly specific enzyme activity for the recombinant E. coli β-glucuronidase enzyme, which could cause the relatively effective hydrolysis of glucuronide substrates even though even though the expression levels of E. coli β-glucuronidase present on EJ/eβG cells are relatively lower than the expression levels of human β-glucuronidase. To differentiate these possibilities, recombinant forms of each enzyme are purified in order to measure accurately their specific activities at defined pH values.
The relative enzymatic activities (percentage maximum activity) of these recombinant enzymes at the indicated pH values are shown (n=3).
E. coli β-glucuronidase display a maximal specific activity of about 20,000 U/mg whereas human β-glucuronidase and mouse β-glucuronidase had maximal specific activities of abut 1600 U/mg and about 1100 U/mg, respectively.

EJ cells = experiment: Surface β-glucuronidase enzyme activity of stable EJ cells; format: cell-based, human; conditions: triplicate determinations
Procedure: (§1) For performing surface enzyme activity assay, transiently-transfected 3T3 fibroblasts in 96-well microplates were washed once with phosphate-buffered saline and immediately assayed for βG activity by adding about 200 μl of phosphate-buffered saline (pH 7.0) buffer containing 0.1% of BSA and 0.25 mM of a β-glucuronidase substrate, 4-methylumbelliferyl β-D-glucuronide, for 30 min at 37° C. About 150 μl of the resulting mixture was transferred to a 96-well fluorescence microplate and mixed with about 75 μl of a stop buffer containing about 1 M of glycine and about 0.5 M of sodium bicarbonate at pH 11. The fluorescence of each mixture was measured at an excitation wavelength of 365 nm and an emission wavelength of 455 nm.
The results shown are the mean values of triplicate determinations. EJ/mβG cells display about 2-3 fold more β-glucuronidase activity than EJ/eβG cells and about 5-fold higher activity than EJ/hβG cells. […] The enzymatic activity of E. coli β-glucuronidase in EJ cells are relatively higher than human β-glucuronidase, even though the expression levels of E. coli β-glucuronidase present on EJ/eβG cells are relatively lower than the expression levels of human β-glucuronidase.

3T3 fibroblasts = experiment: Surface enzyme activity assay of transiently transfected 3T3 fibroblasts (4-methylumbelliferyl β-D-glucuronide); format: cell-based, murine
Procedure: as §1
3T3 fibroblasts were transfected with plasmid DNAs using lipofectamine. After about 48 hour, the transfected cells were washed with phosphate-buffered saline and immediately assayed for β-glucuronidase activity by adding 4-methylumbelliferyl β-D-glucuronide for about 30 min at 37° C. The fluorescence (MUG reading as shown) of the resulting mixture was measured. The β-glucuronidase activity in the culture medium of transfected cells was also measured in an analogous way.

B1: mouse β-glucuronidase: purified recombinant mouse β-glucuronidase protein (protein, listed as Mus musculus)
chain: LKGGMLFPKESPSRELKALDGLWHFRADLSNNRLQGFEQQWYRQPLRESGPVLDMPVPSSFNDITQEAALRDFIGWVWYEREAILPRRWTQDTDMRVVLRINSAHYYAVVWVNGIHVVEHEGGHLPFEADISKLVQSGPLTTCRITIAINNTLTPHTLPPGTIVYKTDTSMYPKGYFVQDTSFDFFNYAGLHRSVVLYTTPTTYIDDITVITNVEQDIGLVTYWISVQGSEHFQLEVQLLDEDGKVVAHGTGNQGQLQVPSANLWWPYLMHEHPAYMYSLEVKVTTTESVTDYYTLPVGIRTVAVTKSKFLINGKPFYFQGVNKHEDSDIRGKGFDWPLLVKDFNLLRWLGANSFRTSHYPYSEEVLQLCDRYGIVVIDECPGVGIVLPQSFGNESLRHHLEVMEELVRRDKNHPAVVMWSVANEPSSALKPAAYYFKTLITHTKALDLTRPVTFVSNAKYDADLGAPYVDVICVNSYFSWYHDYGHLEVIQPQLNSQFENWYKTHQKPIIQSEYGADAIPGIHEDPPRMFSEEYQKAVLENYHSVLDQKRKEYVVGELIWNFADFMTNQSPLRVIGNKKGIFTRQRQPKTSAFILRERYWRIANETGGHGSGPRTQCFGSRPFTF
maximal specific activity [1]: about 1100 U/mg

B2: human β-glucuronidase: purified recombinant human β-glucuronidase protein (protein, listed as Homo sapiens)
chain: LQGGMLYPQESPSRECKELDGLWSFRADFSDNRRRGFEEQWYRRPLWESGPTVDMPVPSSFNDISQDWRLRHFVGWVWYEREVILPERWTQDLRTRVVLRIGSAHSYAIVWVNGVDTLEHEGGYLPFEADISNLVQVGPLPSRLRITIAINNTLTPTTLPPGTIQYLTDTSKYPKGYFVQNTYFDFFNYAGLQRSVLLYTTPTTYIDDITVTTSVEQDSGLVNYQISVKGSNLFKLEVRLLDAENKVVANGTGTQGQLKVPGVSLWWPYLMHERPAYLYSLEVQLTAQTSLGPVSDFYTLPVGIRTVAVTKSQFLINGKPFYFHGVNKHEDADIRGKGFDWPLLVKDFNLLRWLGANAFRTSHYPYAEEVMQMCDRYGIVVIDECPGVGLALPQFFNNVSLHHHMQVMEEVVRRDKNHPAVVMWSVANEPASHLESAGYYLKMVIAHTKSLDPSRPVTFVSNSNYAADKGAPYVDVICLNSYYSWYHDYGHLELIQLQLATQFENWYKKYQKPIIQSEYGAETIAGFHQDPPLMFTEEYQKSLLEQYHLGLDQKRRKYVVGELIWNFADFMTEQSPTRVLGNKKGIFTRQRQPKSAAFLLRERYWKIANETRYPHSVAKSQCLENSPFT
maximal specific activity [1]: ~1600 U/mg

B3: E. coli β-glucuronidase: purified recombinant E. coli β-glucuronidase protein (protein, UniProt P05804 1-603, looked up)
Beta-glucuronidase: MLRPVETPTREIKKLDGLWAFSLDRENCGIDQRWWESALQESRAIAVPGSFNDQFADADIRNYAGNVWYQREVFIPKGWAGQRIVLRFDAVTHYGKVWVNNQEVMEHQGGYTPFEADVTPYVIAGKSVRITVCVNNELNWQTIPPGMVITDENGKKKQSYFHDFFNYAGIHRSVMLYTTPNTWVDDITVVTHVAQDCNHASVDWQVVANGDVSVELRDADQQVVATGQGTSGTLQVVNPHLWQPGEGYLYELCVTAKSQTECDIYPLRVGIRSVAVKGEQFLINHKPFYFTGFGRHEDADLRGKGFDNVLMVHDHALMDWIGANSYRTSHYPYAEEMLDWADEHGIVVIDETAAVGFNLSLGIGFEAGNKPKELYSEEAVNGETQQAHLQAIKELIARDKNHPSVVMWSIANEPDTRPQGAREYFAPLAEATRKLDPTRPITCVNVMFCDAHTDTISDLFDVLCLNRYYGWYVQSGDLETAEKVLEKELLAWQEKLHQPIIITEYGVDTLAGLHSMYTDMWSEEYQCAWLDMYHRVFDRVSAVVGEQVWNFADFATSQGILRVGGNKKGIFTRDRKPKSAAFLLQKRWTGMNFGEKPQQGGKQ
maximal specific activity [1]: about 20,000 U/mg
pH of maximal/optimal enzymatic activity [1]: neutral pH range

B4: mβG-e-B7: murine β-glucuronidase fused to immunoglobulin-like C2-type extracellular region, transmembrane domain and cytoplasmic tail of murine B7-1 antigen (protein)
chain: LKGGMLFPKESPSRELKALDGLWHFRADLSNNRLQGFEQQWYRQPLRESGPVLDMPVPSSFNDITQEAALRDFIGWVWYEREAILPRRWTQDTDMRVVLRINSAHYYAVVWVNGIHVVEHEGGHLPFEADISKLVQSGPLTTCRITIAINNTLTPHTLPPGTIVYKTDTSMYPKGYFVQDTSFDFFNYAGLHRSVVLYTTPTTYIDDITVITNVEQDIGLVTYWISVQGSEHFQLEVQLLDEDGKVVAHGTGNQGQLQVPSANLWWPYLMHEHPAYMYSLEVKVTTTESVTDYYTLPVGIRTVAVTKSKFLINGKPFYFQGVNKHEDSDIRGKGFDWPLLVKDFNLLRWLGANSFRTSHYPYSEEVLQLCDRYGIVVIDECPGVGIVLPQSFGNESLRHHLEVMEELVRRDKNHPAVVMWSVANEPSSALKPAAYYFKTLITHTKALDLTRPVTFVSNAKYDADLGAPYVDVICVNSYFSWYHDYGHLEVIQPQLNSQFENWYKTHQKPIIQSEYGADAIPGIHEDPPRMFSEEYQKAVLENYHSVLDQKRKEYVVGELIWNFADFMTNQSPLRVIGNKKGIFTRQRQPKTSAFILRERYWRIANETGGHGSGPRTQCFGSRPFTFVDEQKLISEEDLADFSTPNITESGNPSADTKRITCFASGGFPKPRFSWLENGRELPGINTTISQDPESELYTISSQLDFNTTRNHTIKCLIKYGDAHVSEDFTWEKPPEDPPDSKNTLVLFGAGFGAVITVVVIVVIIKCFCKHRSCFRRNEASRETNNSLTFGPEEALAEQTVFL
surface β-glucuronidase activity of EJ/mβG cells relative to EJ/hβG cells (EJ cells; higher activity): about 5 fold
surface β-glucuronidase activity of EJ/mβG cells relative to EJ/eβG cells (EJ cells; more activity): 2-3 fold

B5: hβG-e-B7: human β-glucuronidase fused to Ig-like C2-type and Ig-hinge-like domains, TM and cytoplasmic tail of murine B7-1 (protein)
chain: LQGGMLYPQESPSRECKELDGLWSFRADFSDNRRRGFEEQWYRRPLWESGPTVDMPVPSSFNDISQDWRLRHFVGWVWYEREVILPERWTQDLRTRVVLRIGSAHSYAIVWVNGVDTLEHEGGYLPFEADISNLVQVGPLPSRLRITIAINNTLTPTTLPPGTIQYLTDTSKYPKGYFVQNTYFDFFNYAGLQRSVLLYTTPTTYIDDITVTTSVEQDSGLVNYQISVKGSNLFKLEVRLLDAENKVVANGTGTQGQLKVPGVSLWWPYLMHERPAYLYSLEVQLTAQTSLGPVSDFYTLPVGIRTVAVTKSQFLINGKPFYFHGVNKHEDADIRGKGFDWPLLVKDFNLLRWLGANAFRTSHYPYAEEVMQMCDRYGIVVIDECPGVGLALPQFFNNVSLHHHMQVMEEVVRRDKNHPAVVMWSVANEPASHLESAGYYLKMVIAHTKSLDPSRPVTFVSNSNYAADKGAPYVDVICLNSYYSWYHDYGHLELIQLQLATQFENWYKKYQKPIIQSEYGAETIAGFHQDPPLMFTEEYQKSLLEQYHLGLDQKRRKYVVGELIWNFADFMTEQSPTRVLGNKKGIFTRQRQPKSAAFLLRERYWKIANETRYPHSVAKSQCLENSPFTVDEQKLISEEDLADFSTPNITESGNPSADTKRITCFASGGFPKPRFSWLENGRELPGINTTISQDPESELYTISSQLDFNTTRNHTIKCLIKYGDAHVSEDFTWEKPPEDPPDSKNTLVLFGAGFGAVITVVVIVVIIKCFCKHRSCFRRNEASRETNNSLTFGPEEALAEQTVFL
β-glucuronidase enzyme activity on the cell surface (3T3 fibroblasts): greatest levels
